The nanobody polyreactivity screen of Harvey et al. (2022)

Assay: yeast display, Sf9 membrane polyspecificity reagent, FACS + sequencing; frameworks hold sequencing errors
Outline: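 Genes from sorted yeast were amplified by colony PCR, read by MiSeq 2 × 250 sequencing and filtered on CDR length. These cells carried a synthetic nanobody library in Saccharomyces cerevisiae BJ5465 and were sorted by FACS into low and high (top ~1%) gates on anti-HA and streptavidin fluorescence. Polyreactivity is labelled according to the gate of origin.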

Sequence | polyreactivity (PSR sort gate)
QVQLVESGGGLVQAGGSLRLSCAASGSTFNAYDMGWYRQAPGKERELVAAISTSGDSTYFADSVKGRFTISRDNAKNTVYLQMNSLKPEDTAVYYCARDIYHYGYDYWGQGTQVTVSS | low polyreactivity
QVQLVESGGGLVQAGGSLRLSCAASGSTFHRYAMGWYRQAPGKERELVAAISVRTGSTYYADSVKGRFTISRDNAKNTVYLQMNSLKPEDTAVYSCAVGKQINGKIYRYDYWGQGTQVTVSS | high polyreactivity
QVQHVESGGGLVQAGGSLRLSCAASGSTSYPYAMGWYRQAPGKERELVATITSGGRTNYADSVKGRFTISRDNAKNTVYLQMNSLKPEDTAVYYCNARFYRWRSYGYDYWGQGTQVTVSS | high polyreactivity
QVKLVESGGGLVQAGGSLRLSCAASGFTFANYAMGWYRQAPGKEREFVAAITKGGGSTNYADSVKGRFTISRDNAKNTVYLQMNSLKPEDTAVYYCNADYFVWYIGRVFSRYGYWGQGTQVTVSS | low polyreactivity
LVQLQESGGGLVQAGGSLRLSCAASGTISPGGYMGWYRQAPGKERELVASINVGGSTNYADSVKGRFTISRDNAKNTVYLQMNSLKPEDTAVYYCAVWGRNRLQLSYWGQGTQVTVSS | low polyreactivity
QFQLVESGGGLVQAGASLRLSCAASVSTFRPYAMGWYRQAPGKERELVAAISSGDSTYYADSVKGRFTISRDNGKNTVYLQMNSLIPDDTAVYYCAKRNYWHRGGGYWGLGTQVTVSS | high polyreactivity
QVQLVESGGGLVQAGGSLRISCAASGSIFYYYDMGWYRQAPGKERELVASISRGGRTYYADSVKGRFTISRDNAMNTVYLQMNSLKPEDTAVYYCAAGYYIRYYGIMDYWGQGTQVTVSS | high polyreactivity
QVQLVESGGGLVQAGGRLSLSCAASGSTLWGYAMGWYRQAPGKERELVATINQSAGSTYYADSVKGRFTISRDHAKNSVYLQMHSLKPEVTAVYYCAAEALVQFSYDYWGQGTQVTVSS | low polyreactivity
QDQPVESGGGLVQAGGSLRLSCDDSGFTFVYYAMGWYRQAPGQERELVAAISTGGSTYYADSVKWRFTISRDNAKNTVYLQMNSLKPEDTAVYYCNAVYTYRWRFNYWGQGTQVTVSS | high polyreactivity
QVQLVESGGGLVQAGGSLRLSCAASGSIFIYYAMGWYRQAPGKEREFVAAISTSTADTYYADSVKGRFTISRDNAKNTVYLQMNSLKPEDTAVYYCAAECRPKWYYWAEGYYWGQGTQVTVSS | high polyreactivity
QVQLVDSGGGLVQAGGSLRLSCAASGSIITYYAMGWYRQAPGKERELVAGISRRGASTYYADSVKGRFTISRDNAKNTVYLQMNSLNPEDTEVYYCAAVPYYYYGFDYWGQGTQVTVSS | high polyreactivity
QVQLVESGGGLVQAGGSLRLSCAASGSTFPDYAMGWYRQAPGKERELVAAIDGSSGSTYYADSVKGRFTISRDNAKNSVYLRMYSLKPEDTAVYYCNVVASLYTYGYWGQGTQVTVSS | low polyreactivity
QVQLVESGGGLVQAGGSLRLSCADSGSIFDFNAMGWYRQAPGKERELVAAITWSGGSTYYADSVKGRFTLSRDNAKNTVYLQMNSLKPEDTAVYYCAADSLYDDFYYWGQGTQVTVSS | low polyreactivity
QVQLVESGGGLVQAGGSLRLSCAASGYIFTTYAMGWYRQAPGKERELVAAISSSGGRTSYADSVKGRFTISRDNAKNTVYLQMNSLKPEDTAVYYCNARVAPKSRRITYGYWGQGTQVTVSS | high polyreactivity
QVQLVESGGGLVQAGGSLRLSCAASGSIISNYVKGWYRQAPGKERELVAAITRRGGRTYYADSVKGRFTISRDNAKNTVYLQMNSLKPEDTAVYYCAAQTISYSYPIIRYDYWGQGTQVTVSS | low polyreactivity
QVQLVESGGGLVQAGGSLRLSCAASGRIFGGYAMGWYRQAPGKERELVAAIRDSGRTYYADSVKGRFTISRDNAKNTVYLQMNSLKPEDTAVYYCAADAHSSYSPFRWYDYWGQGTQVTVSS | low polyreactivity
QVQLVESGGGLVQAGGSLRLSCAASGITFTAYDMGWYRQAPWKEREFVAAISTIGGSTNYADSVKGRFTISRDNAKNTVYLQMNSLKPEDTAVYYCFAWVYQFGYWGQGTQVTVSS | low polyreactivity
QVQLVESAGGLVQAGGSLRLSCAASGSIFVRNAMGWYRQAPGKERELVARISSRGGSTYYADSVKGRFTISRDNAKNTVYLQMISLKPEDTAVYYSNRDRTWQTNDYWGQGTQVTVSS | high polyreactivity
QVQLVESGGGLVQAGGSLRLSCAASGRIFSKNAMGWYRQAPGKERELVAAIDSSGDSTNYADSVKGRFTISRDNAKNTVYLQMNSLKTEDTAVYYCAATLGYRWSGFEYWGLGTQVTVSS | high polyreactivity
QVQLEESGGGLVQAGGSLRLSCDASGSTLLYYAMGWYRPAPGKERELVAAISWRGGSTYYADSVKGRFTISRDNAKNTVYLQMNSLKPEDTAVYYCAARSLRLVGPYYYWGEGTQVTVSS | high polyreactivity
QVQLVESGGGLVQAGGSLRLSCAASGSTFRPNAMGWYRQAPGKERELVATIRTSGGTTYYADSVKGRFTISRDNAKNTVYLQMNSLKPEDTAVYYCAATKFGSSYDYWGQGTQVTVSS | low polyreactivity
QDQLVESGGGLVQAGGSLRLSCAASGSIFTSNAMGWYRQAPGKERELVAVITGSTGRTHYADSVKGRFTISRDNAKNTVYLQMNSLKPEDTAVYYCAAGLTFVTNFDYWGQGTQVTVSS | low polyreactivity

Sequence | polyreactivity (PSR sort gate)
QLQLVESGGGLVQAGGSLRLSCAASGRIFVKYAMGWYRQAPGKERELVAAISNGASTNYADSVKGRFTISRDNAKNTVYLQMNSLKPEDTAVYYCAASFSRYYRKRYDYWGQGTQVTVSS | high polyreactivity
QVQLVESGGGLVQAGGSLRLSCAASGRIFVSNAMGWYRQAPGKERELVACITWTSGSTYYADSVKGRFTISRDNAKNTVYLQMNSLKPEDTAVYYCAAEYWYGNAFDYWGQGTQVTVSS | low polyreactivity
QVQLVESGGGLVQAGGSLRLSCADSARILYHYAIGWYRQAHGKETELVAAITRGGGTNYADSVKGRFTISRDNAKNTVYLQMNSLKPEDTAVYYCNADRFIVTRSRRGDYWGQGTQVTVSS | low polyreactivity
QVQLVESGGGLVQAGGSLRLSCAASGLTIYHYAMGWYRQAPGKERELVAAISWNGGSTYYADSVKGRFTISRDNAKNTVYLQMNSLKPEDTAVYYCAVVFNPHRYTGVLAGYDYWGQGTQVTVSS | high polyreactivity
QVQLVESGGRLVQEGGSLRLSCAASGSSLRSYAMGRYRQAPGKERELLAAISGSGDSTYYADSVKGRFTISRDNAKNTVYLQMNSLKPEDTAVYYCNAVFAFNGYVYWGQGTQVTVSS | low polyreactivity
QVHLVESGGGLVQAGGSLRLSCAASGSILYGNAMGWYRQAPGKERELVAAISYSGGRTYYADSVKGRFTISRDNAKNTVYLQMNSLKPEDTAVYYCAALHSGRVQNFDYWGQGTQVTVSS | high polyreactivity
QVQLVESGGGLVQAGGSLRLSCAASGSIFSYYAMGWYRQAPGKERELVAAITSGGSTYYADSVKGRFTISRDNAKNTVYLQMNSLKPEDTAVYYCAREKWPSQYDYWGQGTQVTVSS | low polyreactivity
QVQLVESGGGLVQAGGSLRLSCAASGSTFFFNAMGWYRQAPGKERELVAAITVRSGSTYYADSVKGRFTISRDNAKSTVYLQMNSLKPEDTAVYFCAADYSPGRSVVDYWGQGTQVTVSS | low polyreactivity
QVQLVESGGGLVQAGGSLRLSCAASGSTFDSYGMGWYRQAPGKERELVGSISSRGGSTYYADSVKGRFTISRDNAKNTVYLQMNSLKPEDTAVYYCAAEWLSWFHGYGMYYWGQGTQVTVSS | low polyreactivity
QVQLVESGGGLVQAGGSLRLSCAASGRIFYSNAMGWYRQAPGKERELVAAITWRGGSTYYADSVKGRFTISRDNAKNTVYLQMNSLKPEDTAVYYCATDGYDDTHYYYWGQGTQVTVSS | low polyreactivity
QVQLVESGGGLVQAGGSLRLSCAASGLTFYIYAMGWYRQAPGKEREFVAAIRRSDARTYYADSVKGRFTISRDNAKNTVYLQMNSLKPEDTAVYYCARPPWFTGYNSGYWGQGTQVTVSS | high polyreactivity
QVQLVESGGGIVQAGGSLRLSCAASGRTFMLYAMGWYRQAPGKERELVASIDRNGGRTYYADSVKGRFTISRDNAKNTVYLQMNSLIPEDTAVYYCAARWYDYGYWGQGTQVTGSS | high polyreactivity
QVQLVESGGGLVQAGGSLRISCAASGITFAWYAMGWYRQAPGKERELVATISAGGAITYYADSVKGRFTISRDNAKNTVYLQMNSLKPEDTAVYYCNAVTYGPYGWGQGTQVTVSS | high polyreactivity
QVQLVESGGGLVQAGGRLRLSCAASGSIFYYNAMGWYRQAPGKERELVAAISRGGRTYYADSVKGRFTISRDNEKNTVYLQMNSLKPEDTAVYYCSARWSGKSINTISFDYWGQGTQVTVSS | high polyreactivity
QVQLVESGGVLVQAGGSLRLSCAASGSTFPRNAMGWYRQAPGKERELVAAISGRGVRTYYADSVKGRFTISRDNAKNTVYLQMNSLKPEDTAVYYCAAERQPYRTSSYNYWGQGTQVTVSS | high polyreactivity
QVQLVESGGGLVQAGGRLRLSCAPSGSTFTANDMGWYRQAPVKERELVAAISISGTRTYYADSVKGRFTISRDNAKNTVYLQMNSLKPEDTAVYYGNKATSYFTVRGYDYWGQGTQVTVSS | high polyreactivity
QVQLVESGGGLVQAGGSLRLSCAASGITLLVNAMGWYRQAPGKERELVAAISGSSGGSTYYADSVKGRFTISRDNAKNTVYLQMNSLKPEDTAVYYCAKRKWYWGLSYIYDSWGQGTQVTVSS | low polyreactivity
QVQLVESGGGLVQAGGSLRLSCAASGSTFAPYAMGWYRQAPGKERELVAVISSAGSTYYADSVKGRFTLSRDNAKNTDYLQRNSLKPEDTAVYYCAARAPSSISQSRGMYYWGQATQVTVSS | high polyreactivity
QVQLVDSAGGLVQAGGSLRLICAASGYTQIKNAMGVSRHAPGKERELVAAISSGGSTKYADSVKGRFTISRDNAKNTVYLQMNSLKPEDTAVYYCAKGRVVPYRRYTRIHMYHWGLGTQVTVSS | high polyreactivity
QVQLVESGGGLVQAGGSLRLSCAASGYTFRAYAMGWYRPAPGKERELVAAISRRGGSTYYADSVKGRFTISRDNAKNTVYLQMNSLKPEDTAVYYCAADFRSEHAEDYWGQGTQVTVSS | high polyreactivity
QVQLVESGGGLVQAGGSLRLSCAASGFIFLAYTMGWYRQAPGKERELVAAISASGGRTYYADSVKGRFTISRDNAKNTVYLQMNSLKPEDTAVYYCAAAGGRFIRYGYWGQGTQVTVSS | high polyreactivity
